Data taken from the Human Domainome abundance scans (Beltran et al. 2025).
± gives the uncertainty stated by the source.

B1: Glucocorticoid receptor, residues 419 to 494; numbered along this chain, P04150 (parent)
chain: KLCLVCSDEASGCHYGVLTCGSCKVFFKRAVEGQHNYLCAGRNDCIIDKIRRKNCPACRYRKCLQAGMNLEARKTK

Variants of: B1
Experiment: abundance fitness (aPCA) (normalised: wild type 0, dead -1); higher = more abundant; growth selection in yeast, the domain comes from the species named
Conditions: Homo sapiens

Abundance fitness of substitutions, site by site:
A30: M 0.051 ± 0.053, F -0.142 ± 0.099, Y -0.102 ± 0.1, R -0.457 ± 0.045, N -0.283 ± 0.098, T -0.064 ± 0.05, E -0.142 ± 0.043, Q -0.192 ± 0.049, V 0.026 ± 0.037, P -0.907 ± 0.19, I -0.071 ± 0.083, L -0.32 ± 0.043, K -0.165 ± 0.062, D -0.701 ± 0.2, W -0.183 ± 0.042, S -0.08 ± 0.042, H -0.292 ± 0.09, G -0.274 ± 0.038
L38: A 0.01 ± 0.034, K 0.033 ± 0.047, I -0.043 ± 0.073, E 0.012 ± 0.036, F 0.018 ± 0.08, D 0.102 ± 0.063, H 0.035 ± 0.08, C -0.03 ± 0.056, G -0.059 ± 0.029, M 0.02 ± 0.049
N36: D -0.065 ± 0.092, G -0.057 ± 0.032, K 0.038 ± 0.049, L -0.036 ± 0.036, S 0.022 ± 0.038, H -0.042 ± 0.067, A -0.012 ± 0.036, M 0.008 ± 0.046, Q -0.034 ± 0.056, Y -0.259 ± 0.13, W -0.151 ± 0.045, V -0.106 ± 0.039, E 0.002 ± 0.042, C -0.133 ± 0.066, F -0.006 ± 0.084, I -0.054 ± 0.078, P -0.05 ± 0.047, T -0.008 ± 0.046
C23: R -0.056 ± 0.36
C20: N -0.75 ± 0.26, H -0.918 ± 0.31, Y -0.782 ± 0.23, I -1.11 ± 0.49, W -0.78 ± 0.11, T -0.87 ± 0.17, V -1.11 ± 0.2, G -0.805 ± 0.12, K -0.948 ± 0.17, Q -1.04 ± 0.2, S -1.4 ± 0.35, F -0.717 ± 0.32, L -1.14 ± 0.17, P -0.594 ± 0.12, M -0.651 ± 0.13, A -0.837 ± 0.12
K24: Q 0.044 ± 0.06, M -0.087 ± 0.077, E 0.011 ± 0.079, W -0.037 ± 0.089, V 0.015 ± 0.059, G -0.018 ± 0.051, F -0.092 ± 0.066, A -0.019 ± 0.05, N -0.028 ± 0.061, Y 0.017 ± 0.06, C 0.011 ± 0.065, T -0.096 ± 0.059, D -0.006 ± 0.087, L -0.134 ± 0.045, H -0.026 ± 0.069, I -0.245 ± 0.072, R -0.105 ± 0.054, P -0.096 ± 0.072, S 0.062 ± 0.055
T19: E -1.03 ± 0.19, Q -0.559 ± 0.067, V -0.011 ± 0.035, R -0.929 ± 0.099, N -0.557 ± 0.14, Y -0.697 ± 0.22, M -0.176 ± 0.059, L -0.184 ± 0.037, W -0.743 ± 0.11, H -0.311 ± 0.1, S 0.034 ± 0.039, D -0.909 ± 0.31, P -0.791 ± 0.13, A -0.031 ± 0.038, I -0.057 ± 0.07, C 0.061 ± 0.053, G -0.393 ± 0.044
V31: A -0.031 ± 0.039, W -0.07 ± 0.044, Q -0.017 ± 0.048, R -0.007 ± 0.028, I 0.037 ± 0.051, Y -0.034 ± 0.081, C -0.016 ± 0.054, S 0.037 ± 0.037, D -0.219 ± 0.084, G -0.036 ± 0.035, P -0.567 ± 0.1, M -0.042 ± 0.049, N -0.104 ± 0.082, F -0.007 ± 0.058, K -0.078 ± 0.056, L -0.036 ± 0.033, E -0.052 ± 0.046
H35: Q -0.044 ± 0.048, F 0.013 ± 0.078, C -0.128 ± 0.065, A 0.018 ± 0.04, R -0.044 ± 0.033, P 0.003 ± 0.046, G 0.024 ± 0.032, M 0.018 ± 0.047, V -0.027 ± 0.033, D 0.005 ± 0.066, I -0.071 ± 0.072, S -0.114 ± 0.04, K -0.002 ± 0.054, W -0.074 ± 0.039, Y -0.08 ± 0.09, N 0.11 ± 0.08, L -0.025 ± 0.034
F26: Y -0.36 ± 0.12, N -0.714 ± 0.28, L -0.655 ± 0.075, R -0.758 ± 0.071, D -1.01 ± 0.26, W -0.462 ± 0.065, S -0.703 ± 0.076, V -0.738 ± 0.084, M -0.793 ± 0.14, G -1 ± 0.11, A -0.877 ± 0.099, P -0.872 ± 0.15, K -0.929 ± 0.14, H -0.513 ± 0.16, E -0.891 ± 0.12, Q -0.858 ± 0.17, C -0.636 ± 0.17, T -1.06 ± 0.18
S22: P -0.06 ± 0.38, D 0.136 ± 0.3, F 0.043 ± 0.11
F27: V -0.386 ± 0.041, D -0.912 ± 0.18, N -0.722 ± 0.25, I -0.26 ± 0.08, R -0.678 ± 0.053, C -0.518 ± 0.11, M -0.144 ± 0.052, K -0.951 ± 0.2, W -0.071 ± 0.038, S -0.681 ± 0.079, E -1.01 ± 0.16, G -0.929 ± 0.089, P -0.695 ± 0.15, Q -0.896 ± 0.14, Y 0 ± 0.073, A -0.25 ± 0.038
Q34: V -0.073 ± 0.039, T -0.064 ± 0.045, H -0.14 ± 0.098, F -0.256 ± 0.12, E -0.051 ± 0.051, C -0.028 ± 0.078, W -0.136 ± 0.046, Y -0.136 ± 0.095, P -0.114 ± 0.051, I -0.188 ± 0.093, K -0.035 ± 0.046, A -0.016 ± 0.038, D -0.046 ± 0.074, M 0.017 ± 0.043, R 0.002 ± 0.032, L -0.099 ± 0.04, N 0.08 ± 0.087
K28: C -0.121 ± 0.069, Y 0.001 ± 0.069, P -0.243 ± 0.047, L -0.022 ± 0.036, R -0.034 ± 0.033, G -0.051 ± 0.031, T 0.001 ± 0.042, F -0.086 ± 0.086, N -0.063 ± 0.058, E 0.007 ± 0.047, M -0.002 ± 0.049, D -0.061 ± 0.069, S -0.068 ± 0.044, Q 0.014 ± 0.056, I -0.064 ± 0.078, H -0.001 ± 0.065, A -0.056 ± 0.036
V17: R -0.141 ± 0.049, P -0.215 ± 0.064, Q -0.194 ± 0.047, M -0.379 ± 0.35, K -0.013 ± 0.38, L -0.16 ± 0.038, H -0.371 ± 0.098, Y -0.451 ± 0.1, I 0.129 ± 0.095, S -0.172 ± 0.052, W -0.641 ± 0.084
G33: W -0.135 ± 0.038, N 0.115 ± 0.1, Y 0.035 ± 0.065, R -0.048 ± 0.03, K 0.034 ± 0.06, S -0.045 ± 0.04, F -0.052 ± 0.083, V -0.044 ± 0.034, E -0.039 ± 0.052, T -0.139 ± 0.055, M -0.052 ± 0.049, A -0.063 ± 0.037, L -0.093 ± 0.035, I -0.121 ± 0.095, H -0.006 ± 0.067, Q -0.017 ± 0.048, C -0.176 ± 0.065, P -0.265 ± 0.059, D 0.05 ± 0.066
G21: S -0.023 ± 0.04, R -0.086 ± 0.033, I -0.088 ± 0.099, P -0.008 ± 0.056, D -0.009 ± 0.062, L -0.037 ± 0.037, M -0.032 ± 0.05, Y -0.031 ± 0.077, C -0.064 ± 0.06, H -0.122 ± 0.072, T -0.031 ± 0.046, E 0.076 ± 0.042, K 0.008 ± 0.045, Q 0.13 ± 0.055, N -0.15 ± 0.09
R29: C -0.077 ± 0.07, G -0.057 ± 0.034, T -0.029 ± 0.056, A -0.024 ± 0.042, D 0.02 ± 0.072, K 0.03 ± 0.059, Q -0.072 ± 0.045, N -0.007 ± 0.083, S -0.056 ± 0.039, I 0.018 ± 0.064, W -0.095 ± 0.046, E 0.033 ± 0.05, M -0.113 ± 0.046, Y -0.072 ± 0.1, F -0.152 ± 0.076, L -0.017 ± 0.034, H -0.071 ± 0.075
V25: T -0.019 ± 0.062, R 0.085 ± 0.044, G 0.008 ± 0.054, H 0.06 ± 0.069, I 0.021 ± 0.075, Q 0.015 ± 0.087, A 0.045 ± 0.056, P -0.614 ± 0.13, W -0.039 ± 0.062, Y -0.129 ± 0.098, D 0.017 ± 0.086, S -0.017 ± 0.05, E 0.051 ± 0.076, N -0.081 ± 0.09, C 0.043 ± 0.063, M -0.094 ± 0.067, F -0.005 ± 0.064
E32: A -0.166 ± 0.041, C -0.031 ± 0.056, Q -0.08 ± 0.046, S -0.049 ± 0.034, R -0.021 ± 0.032, Y -0.131 ± 0.065, D -0.015 ± 0.07, N -0.059 ± 0.059, T -0.007 ± 0.041, H -0.058 ± 0.073, K 0.01 ± 0.049, P -0.388 ± 0.073, W -0.201 ± 0.046, V -0.051 ± 0.036, L -0.073 ± 0.032, G -0.04 ± 0.036, F -0.192 ± 0.074
Y37: Q -0.137 ± 0.13, R -0.211 ± 0.044, F 0.011 ± 0.07, C -0.299 ± 0.12, M 0.013 ± 0.062, G -0.074 ± 0.04, D -0.144 ± 0.068, L -0.003 ± 0.04, K -0.122 ± 0.061, T -0.084 ± 0.052, V -0.116 ± 0.043, H -0.117 ± 0.088, P -0.104 ± 0.054, N -0.026 ± 0.066, I -0.08 ± 0.093, E -0.107 ± 0.052
L18: R -0.036 ± 0.036, T -0.031 ± 0.058, G -0.191 ± 0.042, S 0.038 ± 0.05, H -0.012 ± 0.08, Y 0.098 ± 0.086, P -0.004 ± 0.055, E -0.045 ± 0.052, M -0.077 ± 0.056, V 0 ± 0.041, W -0.01 ± 0.047, N -0.1 ± 0.081, A 0.097 ± 0.044, F -0.002 ± 0.067, D 0.062 ± 0.062, Q -0.087 ± 0.05, K -0.088 ± 0.044, I 0.035 ± 0.082
